One experiment deals with T1, HIS tag.
T1 construct: also called his6 tag; 6-His
T1 peptide: HHHHHH
Nature of the experiment: ELISA.

The target of experiment [1] is T2, recombinant human PCSK9 (aa 31-692) with C-terminal His6 tag (human, UniProt Q8NBP7 31-692). Nature of the experiment: cell-based or functional assay.
In experiment [2] the target is T2, recombinant human PCSK9 (aa 31-692) …. The experiment can be described thus: cell-based or functional assay. The source holds these as a separate data set.
Experiment [3] shares this target. The experiment can be described thus: solution equilibrium titration (SET), MSD electrochemiluminescence read-out.
Description: Serial dilutions of Pcsk9 were prepared, and antibodies were added to each antigen concentration to reach a constant antibody concentration of 100 pM. 100 μL/well of each dilution mix was distributed in duplicate to a 96-well polypropylene microtiter plate (Greiner). The plate was sealed and incubated over night at room temperature. A 96-well Standard Bind microtiter plate (Meso Scale Discovery) was coated with 25 μL of 1 μg/mL Pcsk9 diluted in PBS. This plate was sealed and incubated over night at 4° C. After the incubation the antigen-coated Standard Bind micro titer plate was washed three times with 200 [L per well PBS/0.05% (w/v) Tween 20. Subsequently, the plate was blocked with 150 μL/well PBS/5% (w/v) BSA and incubated for one hour at room temperature with shaking. The washing steps were repeated and 25 μL/well of the antibody-antigen preparation from the polypropylene microtiter plate was transferred into the antigen-coated Standard Bind plate. The Standard Bind plate was incubated for 60 min at room temperature with shaking. […] Electrochemiluminescence signals were generated and detected by a Sector Imager 6000 (Meso Scale Discovery). […]
Experiment [4] concerns the target T3, cynomolgus macaque PCSK9 with C-terminal his6 tag (cynomolgus monkey).
T3 chain: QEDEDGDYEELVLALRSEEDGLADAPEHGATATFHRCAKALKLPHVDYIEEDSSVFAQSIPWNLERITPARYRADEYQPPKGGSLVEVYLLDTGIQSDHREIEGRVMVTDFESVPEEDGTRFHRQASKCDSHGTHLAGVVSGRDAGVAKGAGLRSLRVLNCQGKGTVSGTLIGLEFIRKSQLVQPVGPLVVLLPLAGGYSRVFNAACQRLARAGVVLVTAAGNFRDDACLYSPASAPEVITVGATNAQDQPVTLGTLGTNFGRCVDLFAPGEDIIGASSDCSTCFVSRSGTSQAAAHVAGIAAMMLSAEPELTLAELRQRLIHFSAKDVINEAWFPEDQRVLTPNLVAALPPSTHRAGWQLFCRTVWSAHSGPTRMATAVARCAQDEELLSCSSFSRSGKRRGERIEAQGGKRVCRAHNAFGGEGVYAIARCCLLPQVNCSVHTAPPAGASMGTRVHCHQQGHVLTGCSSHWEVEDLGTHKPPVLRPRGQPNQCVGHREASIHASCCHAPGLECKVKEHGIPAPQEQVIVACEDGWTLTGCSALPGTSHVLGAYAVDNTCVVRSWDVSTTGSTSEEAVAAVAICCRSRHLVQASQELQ
The experiment can be described thus: solution equilibrium titration (SET), fit by the model of Piehler et al.
Description: (§1) The binding kinetics of the final selected candidates were analyzed using a Solution Equilibrium Titration (“SET”) assay. Briefly, serial dilutions of human, cyno, mouse, or rat Pcsk9 were prepared, and anti-Pcsk9 Ab was added to each antigen concentration to reach a constant antibody concentration of 100 pM. 100 μL/well of each dilution mix was distributed in duplicate to a 96-well polypropylene microtiter plate (Greiner). The plate was sealed and incubated over night at room temperature. A 96-well Standard Bind microtiter plate (Meso Scale Discovery) was coated with 25 μL of 1 μg/mL Pcsk9 diluted in PBS. This plate was sealed and incubated overnight at 4° C. After the incubation the antigen-coated Standard Bind micro titer plate was washed three times with 200 μL per well PBS/0.05% (w/v) Tween 20. Subsequently, the plate was blocked with 150 μL/well PBS/5% (w/v) BSA and incubated for one hour at room temperature with shaking. The washing steps were repeated and 25 μL/well of the antibody-antigen preparation from the polypropylene microtiter plate was transferred into the antigen-coated Standard Bind plate. The Standard Bind plate was incubated for 60 min at room temperature with shaking. After three additional washing steps, 25 μL of 1 μg/mL Sulfo-Tag-labeled goat anti-human-detection antibody (R32AJ-5, Meso Scale Discovery) diluted in PBS/1% (w/v) BSA/0.05% (w/v) Tween 20, buffer were added to each well and incubated one hour at room temperature with shaking. […] Electrochemiluminescence signals were generated and detected by a Sector Imager 6000 (Meso Scale Discovery).

For a further experiment, the target named is T4, murine PCSK9 (mouse, UniProt Q80W65 35-694, limits assumed).
T4 construct: also called mouse Pcsk9
The experiment is described as above.

Experiment [5] addresses T2, recombinant human PCSK9 (aa 31-692) …. The experiment can be described thus: TR-FRET competition, labelled hPcsk9 (8 nM) and labelled hLDL-R (1 nM); MAB1 antibody as competitor. On the technique in general: In TR-FRET formats the signal depends on donor and acceptor labels being close together.
Description: The percentage inhibition was calculated with the following formula: 100−[(normalized value of treated sample/averaged normalized value of untreated samples)×100]. The percentage inhibition dose response curves were plotted using Prism version 5 with the formula, Y=Bottom+(Top−Bottom)/(1+10̂((LogIC50−X)*HillSlope)) (GraphPad Prism Software).
Experiment [6] addresses biotinylated PCSK9-Avi-His6 (human) (UniProt Q8NBP7). Nature of the experiment: ForteBio Octet bio-layer interferometry, biotinylated PCSK9-Avi-His6 on streptavidin sensors, Fab in solution. Background: BLI is a label-free optical method that tracks binding on a fibre tip over time.
For experiment [7], the target named is T2, recombinant human PCSK9 (aa 31-692) …. Nature of the experiment: TR-FRET competition, hPcsk9-AF (8 nM) and hLDL-R-Eu (1 nM). From the text: Data are representative of at least two independent experiments.
Experiment [8] shares this target. The experiment can be described thus: solution equilibrium titration (SET), MSD electrochemiluminescence read-out. The source holds these as a separate data set.
Description: The binding kinetics of the final selected candidates were analyzed using a Solution Equilibrium Titration (“SET”) assay. Briefly, serial dilutions of human, cyno, mouse, or rat Pcsk9 were prepared, and anti-Pcsk9 Ab was added to each antigen concentration to reach a constant antibody concentration of 100 pM. 100 μL/well of each dilution mix was distributed in duplicate to a 96-well polypropylene microtiter plate (Greiner). The plate was sealed and incubated over night at room temperature. A 96-well Standard Bind microtiter plate (Meso Scale Discovery) was coated with 25 μL of 1 μg/mL Pcsk9 diluted in PBS. This plate was sealed and incubated overnight at 4° C. After the incubation the antigen-coated Standard Bind micro titer plate was washed three times with 200 μL per well PBS/0.05% (w/v) Tween 20. Subsequently, the plate was blocked with 150 μL/well PBS/5% (w/v) BSA and incubated for one hour at room temperature with shaking. The washing steps were repeated and 25 μL/well of the antibody-antigen preparation from the polypropylene microtiter plate was transferred into the antigen-coated Standard Bind plate. The Standard Bind plate was incubated for 60 min at room temperature with shaking. […] Electrochemiluminescence signals were generated and detected by a Sector Imager 6000 (Meso Scale Discovery).
The target of experiment [9] is T5, hFgfr4 hFc (human, UniProt P22455).
T5 sequence (fusion chain, looked up): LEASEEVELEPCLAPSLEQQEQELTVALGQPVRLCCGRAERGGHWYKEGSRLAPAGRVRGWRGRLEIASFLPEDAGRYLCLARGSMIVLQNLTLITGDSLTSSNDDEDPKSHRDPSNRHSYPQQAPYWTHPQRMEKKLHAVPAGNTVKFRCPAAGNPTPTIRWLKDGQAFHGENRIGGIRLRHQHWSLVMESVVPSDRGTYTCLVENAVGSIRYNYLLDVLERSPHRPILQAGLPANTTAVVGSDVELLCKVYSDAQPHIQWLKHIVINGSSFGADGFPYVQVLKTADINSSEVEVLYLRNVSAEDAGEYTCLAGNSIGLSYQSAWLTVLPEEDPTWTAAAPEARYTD
The experiment can be described thus: specificity ELISA, antigen coated at 88 ng per well, absorbance 650 nm. In general terms: An ELISA detects its analyte on a solid surface through an enzyme-linked reagent.
Description: (§2) For specificity ELISAs on purified human and mouse IgGs, a 384-well plate was coated with a panel of purified human or mouse antigens at 88 ng per well and incubated overnight at 4° C. The plate was blocked and washed as described above, then 22 μL of purified mouse or human anti-PCSK9 antibody diluted to 2 μg/mL in PBS was added to each well. The plate was incubated for 1 hr at 37° C. then washed with PBST. […] The plate was incubated for 1 hr at room temperature, then washed and developed as described above.

The target in a further experiment is Rat (Pcsk9 homolog) (rat, UniProt P59996). Nature of the experiment: solution equilibrium titration (SET), fit by the model of Piehler et al.
Experiment [10] addresses T2, recombinant human PCSK9 (aa 31-692) …. Nature of the experiment: solution equilibrium titration (SET): soluble human PCSK9 titrated against 100 pM antibody, free antibody captured on a Pcsk9-coated MSD plate; the concentration is that of human PCSK9.
Description: Briefly, serial dilutions of human, cyno, mouse, or rat Pcsk9 were prepared, and anti-Pcsk9 Ab was added to each antigen concentration to reach a constant antibody concentration of 100 pM. 100 μL/well of each dilution mix was distributed in duplicate to a 96-well polypropylene microtiter plate (Greiner). The plate was sealed and incubated over night at room temperature. A 96-well Standard Bind microtiter plate (Meso Scale Discovery) was coated with 25 μL of 1 μg/mL Pcsk9 diluted in PBS. This plate was sealed and incubated overnight at 4° C. After the incubation the antigen-coated Standard Bind micro titer plate was washed three times with 200 μL per well PBS/0.05% (w/v) Tween 20. Subsequently, the plate was blocked with 150 μL/well PBS/5% (w/v) BSA and incubated for one hour at room temperature with shaking. The washing steps were repeated and 25 μL/well of the antibody-antigen preparation from the polypropylene microtiter plate was transferred into the antigen-coated Standard Bind plate. The Standard Bind plate was incubated for 60 min at room temperature with shaking. […] Electrochemiluminescence signals were generated and detected by a Sector Imager 6000 (Meso Scale Discovery).
The target of experiment [11] is T5, hFgfr4 hFc. The experiment can be described thus: specificity ELISA, antigen coated at 88 ng per well, absorbance 650 nm. This is another data set of the same source.
Description: as §2

In general, Kd refers to the concentration at which binding is half-saturated. Usually IC50 stands for the midpoint of a concentration-inhibition curve.

Residue numbers refer to the chain shown, from its start. Where two headings read alike, the source gives them in different places.

T4 sequence (Q80W65 other isoform, or with tags, fused parts or gaps limits assumed): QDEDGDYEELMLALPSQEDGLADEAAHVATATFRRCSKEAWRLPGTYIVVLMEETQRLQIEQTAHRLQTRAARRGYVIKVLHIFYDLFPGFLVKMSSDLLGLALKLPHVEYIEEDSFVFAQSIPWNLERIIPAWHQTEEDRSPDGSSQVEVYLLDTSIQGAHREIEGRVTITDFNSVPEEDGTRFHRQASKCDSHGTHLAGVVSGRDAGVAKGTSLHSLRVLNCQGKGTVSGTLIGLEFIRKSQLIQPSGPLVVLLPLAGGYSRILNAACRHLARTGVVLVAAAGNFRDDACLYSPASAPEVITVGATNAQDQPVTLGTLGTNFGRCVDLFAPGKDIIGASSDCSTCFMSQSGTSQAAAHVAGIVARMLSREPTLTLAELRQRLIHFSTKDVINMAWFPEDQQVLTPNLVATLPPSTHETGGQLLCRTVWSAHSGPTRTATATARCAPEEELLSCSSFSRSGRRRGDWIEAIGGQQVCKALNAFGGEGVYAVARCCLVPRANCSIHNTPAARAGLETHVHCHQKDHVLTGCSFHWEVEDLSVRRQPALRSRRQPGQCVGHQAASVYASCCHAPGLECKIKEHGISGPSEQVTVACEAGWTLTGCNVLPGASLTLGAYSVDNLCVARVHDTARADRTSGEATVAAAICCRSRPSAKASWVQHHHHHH
Chain of Rat (Pcsk9 homolog) (P59996 31-691 limits assumed): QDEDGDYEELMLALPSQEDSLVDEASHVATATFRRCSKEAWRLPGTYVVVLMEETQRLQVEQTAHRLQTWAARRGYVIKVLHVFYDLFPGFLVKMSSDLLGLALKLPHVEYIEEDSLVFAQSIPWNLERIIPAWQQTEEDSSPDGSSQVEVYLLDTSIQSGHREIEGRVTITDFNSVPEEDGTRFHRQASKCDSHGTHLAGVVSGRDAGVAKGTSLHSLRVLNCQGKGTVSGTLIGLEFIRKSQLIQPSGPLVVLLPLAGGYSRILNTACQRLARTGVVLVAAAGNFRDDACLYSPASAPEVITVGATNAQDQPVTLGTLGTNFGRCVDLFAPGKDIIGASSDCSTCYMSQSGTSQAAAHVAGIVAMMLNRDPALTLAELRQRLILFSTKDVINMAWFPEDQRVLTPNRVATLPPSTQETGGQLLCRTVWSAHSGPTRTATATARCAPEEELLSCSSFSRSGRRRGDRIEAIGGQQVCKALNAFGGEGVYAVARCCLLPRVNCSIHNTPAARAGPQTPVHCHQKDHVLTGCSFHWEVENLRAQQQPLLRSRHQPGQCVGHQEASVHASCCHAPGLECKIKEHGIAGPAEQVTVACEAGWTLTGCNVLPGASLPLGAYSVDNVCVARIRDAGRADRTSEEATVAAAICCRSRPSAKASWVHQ
Description for Rat (Pcsk9 homolog): as §1
Description for murine PCSK9: as §1

B1: mouse monoclonal antibody MAB1 (antibody, V domains shown)
VH: QVTLKESGPGILQPSQTLSLTCSFSGFSLSTSGMGVGWIRQPSGEGLEWLADIWWDDNKYYNPSLKSRLTVSKDTSSNQVFLKITSVDTADTATYYCALITTEGGFAYWGQGTLVTVSA
VL: DIVLTQSPATLSVTPGDSVSLSCRASQSINNNLHWYQQKSHESPRLLIKFASRSISGIPSKFSGSGSGTDFTLSINSVETEDFGMYFCQQSNYWPLTFGAGTNLELI
notes: also called parent mouse monoclonal antibody; murine anti-human Pcsk9 IgG1-kappa monoclonal antibody
Turning to B1, the binding result with HIS tag is on record as “no binding”. The “DiI-LDL-uptake by HepG2 cells treated with exogenous hPcsk9, EC50” value in experiment [1] was 194 nM. The “EC50, LDL-R protection (surface LDL-R on HepG2 cells, flow cytometry)” value (“EC50, LDL-R protection” for short) in [2] was 309 nM. Besides, the Kd was 0.27 nM in experiment [3], 0.23 nM in [4] and more than 10000 nM with murine PCSK9. In [5], the IC50 amounted to 77 nM.

B2: fully Humaneered Fab Clone #44 (Fab, part only; not given: kappa light chain, V domains shown, part only)
VH: QITLKESGPVLVKPTETLTLTCTVSGFSLSTSGVGVGWIRQPPGKALEWLADIWWDDNKYYNPSLKSRLTISKDTSKNQVVLTMTNMDPVDTATYYCARITTEGGFAYWGQGTLVTVSS
Take B2: the Kd in experiment [6] came out at 22.3 nM.

B3: Humaneered antibody MAB2 (antibody, human IgG1, V domains shown)
VH: B2 VH
VL: DIQMTQSPSSLSASVGDRVTITCRAGQRISHNLHWYQQKPDESPRLLINFASRLISGVPSRFSGSGSGTDFTLTISSLQPEDFATYYCQQSNYWPLTFGQGTKLEIK
As for B3, the “EC50, LDL uptake (DiI-LDL uptake by HepG2 cells with hPCSK9, flow cytometry)” value in experiment [2] stood at 210 nM. For the same molecule, in [2], the “EC50, LDL-R protection” value was found to be 324 nM. In addition, in [7], the IC50 stood at 20 nM. The Kd in experiment [8] is 0.26 nM; with Rat (Pcsk9 homolog) it was more than 10000 nM; in experiment [4] it was 0.4 nM; in the experiment with murine PCSK9 it was more than 10000 nM. For the same molecule, in the experiment with hFgfr4 hFc [9], the binding result was “no binding (tested: 2 µg/mL (single concentration))”. Besides, the “IC50 (read off the curve)” value in experiment [10] is approximately 0.3 nM.

B4: Humaneered antibody MAB3 (antibody, human IgG1, V domains shown)
VH: B2 VH with I2V, V10T, E16Q, P42S
VL: B3 VL
B4: the “EC50, LDL uptake (DiI-LDL uptake by HepG2 cells with hPCSK9, flow cytometry)” value in experiment [2] is 168 nM. Also, the “EC50, LDL-R protection” value in [2] was determined as 300 nM. Moreover, in experiment [7], the IC50 was 28 nM. Moreover, the Kd was 0.3 nM in experiment [8], more than 10000 nM with Rat (Pcsk9 homolog), 0.4 nM in experiment [4] and more than 10000 nM with murine PCSK9. Also, the binding result with hFgfr4 hFc [11] is recorded as “no binding (tested: 2 µg/mL (single concentration))”. Moreover, in [10], the “IC50 (read off the curve)” value is approximately 0.3 nM.

These data come from patent publication US20130315927A1 (Novartis, published 2013).
